In article PMC8087810, “Interfacing aptamers, nanoparticles and graphene in a hierarchical structure for highly selective detection of biomolecules in OECT devices”:

Target: alpha-thrombin (UniProt P00734;P00734 328-363;364-622)
Test: OECT aptasensor (sigmoidal fit of delta ratio, EC50); EC50 of sensor response, 1-100 pM thrombin, Tris buffer; LoD 5.000±0.087 pM; surface-immobilized aptamer; Thrombin: Tris buffer (composition not in material); BSA: PBS (137 mM NaCl, 2.7 mM KCl, 10 mM Na2HPO4, 1.8 mM KH2PO4), pH 7.4 (Tris stated as same pH); BSA and

B1: TBA15 (thrombin binding aptamer, Fc/SH modified) (structured_DNA)
DNA: GGTTGGTGTGGTTGG
modifications: 5' ferrocene; 3' C6-SH thiol, immobilized on AuNPs-PMLG gate electrode, MCH blocked
Q: With B1 as the binder, how does the “apparent K (half saturation)” value read?
A: 0.0489 nM
